No end group written: not given here. *: point of attachment. FITC = O=C1OC2(c3ccc(O)cc3Oc3cc(O)ccc32)c2ccc(NC(=S)*)cc21
T1: Mu homology domain (MHD) of the AP-2 subunit mu (AP2M1 MHD) (human, UniProt Q96CW1 170-434)
T1 sequence (looked up): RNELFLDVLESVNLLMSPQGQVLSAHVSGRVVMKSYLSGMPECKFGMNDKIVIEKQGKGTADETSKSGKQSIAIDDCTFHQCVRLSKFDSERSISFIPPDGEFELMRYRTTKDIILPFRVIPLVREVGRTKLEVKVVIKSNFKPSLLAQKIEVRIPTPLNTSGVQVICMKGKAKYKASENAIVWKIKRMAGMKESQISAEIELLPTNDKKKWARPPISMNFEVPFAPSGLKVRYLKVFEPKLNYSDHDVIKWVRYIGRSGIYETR

T2: GAE domain of ADP-ribosylation factor-binding protein GGA3 (GGA3 GAE) (human, UniProt Q9NZ52 594-715)
T2 construct: also called GGA3 ear
T2 sequence (looked up): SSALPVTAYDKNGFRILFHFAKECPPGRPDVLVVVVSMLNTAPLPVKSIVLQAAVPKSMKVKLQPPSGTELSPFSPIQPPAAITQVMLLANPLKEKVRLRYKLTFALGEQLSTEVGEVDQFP

T3: N-terminal domain of clathrin (human, UniProt Q00610 1-364)
T3 construct: also called CLTC NTD; CLTC-NTD
T3 sequence: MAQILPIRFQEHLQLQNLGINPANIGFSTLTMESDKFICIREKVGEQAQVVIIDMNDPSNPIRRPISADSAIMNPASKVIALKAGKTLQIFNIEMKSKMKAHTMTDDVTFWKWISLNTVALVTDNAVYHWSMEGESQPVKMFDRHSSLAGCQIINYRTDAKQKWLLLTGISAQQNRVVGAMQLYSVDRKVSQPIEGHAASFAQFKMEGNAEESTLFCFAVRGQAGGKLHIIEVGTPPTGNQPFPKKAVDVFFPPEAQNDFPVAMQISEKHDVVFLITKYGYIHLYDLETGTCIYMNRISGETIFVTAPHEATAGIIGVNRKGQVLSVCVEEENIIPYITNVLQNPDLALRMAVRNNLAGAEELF

B1: PABP-interacting protein 2 peptide PAIP2_(108-123) (peptide, UniProt Q9BPZ3 108-123, looked up)
peptide: KSNLNPNAKEFVPGVK
notes: also called PAIP2 peptide
B2: F 519-534 (HeV) (peptide)
peptide: EKKRGNYSRLDDRQVR
B3: Nsp4 75-90 (BAV) (peptide)
peptide: NLNRVRYSKLDENGVY
B4: N 124-139 (MuV) (peptide)
peptide: ANEIAAYALLADDLPP
B5: FITC - RABEP1 435-446 (Human) (peptide)
peptide: {FITC}-DESDFGPLVGAD
B6: Nsp4 118-142 (BAV) (peptide)
peptide: VDEEKGLYPNLKLTEPTAPMIHNYM
B7: NP 334-349 (ZEBOV) (peptide)
peptide: VNVGEQYQQLREAATE
B8: tumor susceptibility gene 101 protein UEV domain (TSG101 UEV) (domain or fragment)
chain: AVSESQLKKMVSKYKYRDLTVRETVNVITLYKDLKPVLDSYVFNDGSSRELMNLTGTIPVPYRGNTYNIPICLWLLDTYPYNPPICFVKPTSSMTIKTGKHVDANGKIYLPYLHEWKHPQSDLLGLIQVMIVVFGDEPPVFSRP
B9: N_(351-366) (HCoV 229E) peptide (peptide)
peptide: HPLLNPSALEFNPSQT
B10: Nsp4 127-142 (BAV) (peptide)
peptide: NLKLTEPTAPMIHNYM
B11: VP40 1-20 (SEBOV) (peptide)
peptide: MRRVTVPTAPPAYADIGYPM
B12: FITC - IGF2R 2482-2491 (Human) (peptide)
peptide: {FITC}-DDSDEDLLHI
B13: MDC1 1280-1295 (Human) (peptide)
peptide: TPEPVVPTAPELRPSTY
B14: NP 460-485 (ZEBOV) (peptide)
peptide: DPDDGSYGEYQSYSEN
B15: FITC - gag 453-462 (HIV2) (peptide)
peptide: {FITC}-GLIPTAPPAD
B16: P/V/C 183-198 (HeV) (peptide)
peptide: SAGLNPAAVPFVPKNQY
B17: IGF2R 2476-2491 (Human) (peptide)
peptide: YKLVSFHDDSDEDLLHI
B18: RABEP1 433-448 (Human) (peptide)
peptide: NLDESDFGPLVGADSVY
B19: VHS domain of ADP-ribosylation factor-binding protein GGA3 (GGA3 VHS) (domain or fragment)
chain: ATNPSNRQEDWEYIIGFCDQINKELEGPQIAVRLLAHKIQSPQEWEALQALTVLEACMKNCGRRFHNEVGKFRFLNELIKVVSPKYLGDRVSEKVKTKVIELLYSWTMALPEEAKIKDAYHMLKRQGIVQS
B20: M 32-47 (WCBV) (peptide)
peptide: WLPPPEYVPLHEISSK
B21: C terminal domain of polyadenylate-binding protein 1 (PABP1 PABC) (domain or fragment)
chain: QEPLTASMLASAPPQEQKQMLGERLFPLIQAMHPTLAGKITGMLLEIDNSELLHMLESPESLRSKVDEAVAVLQAHQA
notes: also called PABPC1 PABC; PABP1 C
B22: L 177-192 (OLVV) (peptide)
peptide: SIEELEYQRLVTSLSK
B23: M6PR 262-277 (Human) (peptide)
peptide: YQLGEESEERDDHLLPM
B24: PAIP1 125-140 (Human) (peptide)
peptide: MSKLSVNAPEFYPSGY
B25: M 26-41 (RABV) (peptide)
peptide: PDDDDLWLPPPEYIPL
B26: PAIP2 108-123 (Human) (peptide)
peptide: KSNLNPNAKEFVPGVKY
B27: P/V/C 130-145 (NiV) (peptide)
peptide: SSPERGWSDYTSGANN
B28: mu-NS_(705-720) (MRV1) peptide (peptide)
peptide: VDGAADLIDFSVPTDE
B29: CLINT1 366-381 (Human) (peptide)
peptide: TSGNGDFGDWSAFNQA
B30: P/V/C_(183-198) (NiV) peptide (peptide)
peptide: TTGLNPTAVPFTLRNL
B31: SYNRG 664-679 (Human) (peptide)
peptide: SSLADDFGEFSLFGEY
B32: P/V/C 183-198 (NiV) (peptide)
peptide: TTGLNPTAVPFTLRNLY
B33: PDCD6IP 711-727 (Human) (peptide)
peptide: QSIAREPSAPSIPTPAY
B34: P/V/C_(183-198) (HeV) peptide (peptide)
peptide: SAGLNPAAVPFVPKNQ

Assays:
Conditions in all cases: both partners purified
[1] = target: T4, C terminal domain of polyadenylate-binding protein 1 (human, UniProt P11940 544-623)
T4 construct: also called PABP1 PABC; PABC

[2] = target: T1, Mu homology domain (MHD) of the AP-2 …
[3] = target: T2, GAE domain of ADP-ribosylation …
[4] = target: B8
[5] = target: VP0 79-94 (HPeV5) (Human parechovirus 5 (strain CT86-6760) …)
[6] = target: B19
[7] = target: B21
[8] = target: P1 54-69 (SFV) (Semliki forest virus (SFV))
[9] = target: N 2-17 (BeV) (Berne virus (BEV))
[10] = target: T3, N-terminal domain of clathrin

T4 sequence (P11940 544-623): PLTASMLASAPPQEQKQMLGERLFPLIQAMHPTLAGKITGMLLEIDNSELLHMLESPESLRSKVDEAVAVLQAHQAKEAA

B1
binding result [1]: binds

B2
Kd [2]: 14 ± 1 µM

B3
Kd [2]: 15.9 ± 0.2 µM

B4
Kd [2]: 4 ± 0.1 µM

B5
Kd [3]: 1.9 ± 0.1 µM

B6
Kd [4]: 73 ± 2 µM

B7
Kd [2]: 9.51 ± 0.07 µM

B8
Kd [5]: 75 ± 0.7 µM

B9
binding result [1]: binds

B10
Kd [4]: 64 ± 4 µM

B11
Kd [4]: 12.2 ± 0.3 µM

B12
Kd [6]: 4.2 ± 0.4 µM

B13
Kd [4]: 28 ± 0.7 µM

B14
Kd [3]: 10.6 ± 0.5 µM

B15
Kd [4]: 3.1 ± 0.2 µM

B16
Kd [7]: 2 ± 0.3 µM

B17
Kd [6]: 4.7 ± 0.2 µM

B18
Kd [3]: 1.7 ± 0.3 µM

B19
Kd [8]: 82 ± 5 µM

B20
Kd [2]: 12 ± 0.4 µM

B21
Kd [9]: 2.7 ± 0.1 µM

B22
Kd [2]: 10.9 ± 0.1 µM

B23
Kd [6]: 21 ± 1 µM

B24
Kd [7]: 1.58 ± 0.08 µM

B25
Kd [6]: 148 ± 8 µM

B26
Kd [7]: 0.16 ± 0.2 µM

B27
Kd [3]: 48 ± 6 µM

B28
binding result [10]: binds

B29
Kd [3]: 35 ± 3 µM

B30
binding result [1]: binds

B31
Kd [3]: 11.2 ± 0.3 µM

B32
Kd [7]: 14.6 ± 0.8 µM

B33
Kd [4]: 152 ± 1 µM

B34
fold weaker affinity than PAIP2(108-123) [1]: 10 fold

Source: PMC10132805 (Nature Communications, 2023)
